The source of these data is paper PMC9166362, “Early midcell localization of Escherichia coli PBP4 supports the function of peptidoglycan amidases” (PLoS Genetics, 2022).

In assay [1] the target is PBP4ΔD3 (PBP4 lacking domain 3), His-tagged (E. coli) (UniProt P24228). Put plainly: AUC; sedimentation velocity, 45,000 rpm, 20°C, 25 mM HEPES/NaOH, 150 mM NaCl, pH 7.5, about 0.25 to 1.4 mg/ml; c(s) analysis.
Assay [2] deals with LpoA, soluble (LpoAΔ1–27) (E. coli) (UniProt P45464). Put plainly: MST; one protein fluorescently labelled (NT-647 dye) at a fixed concentration, two-fold serial dilution of unlabelled ligand over 16 samples; 25 mM HEPES/NaOH, 150 mM NaCl, 0.05% Triton X-100, pH 7.5; Monolith NT.115; apparent KD.
Assay [3] has as its target LpoA^N, N-terminal domain of LpoA (residues G28-T256) (E. coli) (UniProt P45464). The assay is described as above.
For assay [4], the target named is EnvC, soluble version without the N-terminal 34 amino acid signal peptide (E. coli) (UniProt P37690). Described as above.
The target of assay [5] is PBP4 (penicillin binding protein 4, DD-carboxy/endopeptidase), purified, untagged (E. coli) (UniProt P24228). Put plainly: AUC; sedimentation velocity, 45,000 rpm, 20°C, 25 mM HEPES/NaOH, 150 mM NaCl, pH 7.5, about 0.25 to 1.4 mg/ml; c(s) analysis.
Assay [6] concerns the target T1, PBP4 (penicillin binding protein 4, DD-carboxy/endopeptidase), purified, untagged (E. coli, UniProt P24228 61-477).
T1 chain: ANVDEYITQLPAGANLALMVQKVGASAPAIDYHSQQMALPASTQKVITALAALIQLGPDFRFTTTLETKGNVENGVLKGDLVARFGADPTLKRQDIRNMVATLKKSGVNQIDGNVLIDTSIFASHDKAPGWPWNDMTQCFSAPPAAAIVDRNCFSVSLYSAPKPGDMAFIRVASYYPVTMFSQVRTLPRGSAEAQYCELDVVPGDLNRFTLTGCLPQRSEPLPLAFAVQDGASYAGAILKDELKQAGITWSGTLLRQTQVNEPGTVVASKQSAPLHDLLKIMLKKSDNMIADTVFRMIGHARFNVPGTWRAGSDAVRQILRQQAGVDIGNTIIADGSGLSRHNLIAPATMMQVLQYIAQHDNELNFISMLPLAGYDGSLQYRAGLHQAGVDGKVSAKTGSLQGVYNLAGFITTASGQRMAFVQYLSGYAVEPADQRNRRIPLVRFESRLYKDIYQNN
Put plainly: MST.

The target in assay [7] is PBP4ΔD3 (PBP4 lacking domain 3), His-tagged (E. coli, UniProt P24228 21-477, PBP4Δ173–247 (domain 3)). Put plainly: MST.
Assay [8] has as its target T2, EnvC, soluble version without the N-terminal 34 amino acid signal peptide (E. coli, UniProt P37690 35-419).
T2 construct: EnvC of E. coli, soluble version without the N-terminal, 34 amino acid long, signal peptide; the text calls it full-length EnvC; In MST fluorescently labelled (Fl-EnvC) in some runs; also called full-length EnvC; Fl-EnvC; source: E. coli BL21(DE3) pET28a-His-EnvC, purified (HisTrap, thrombin, Superdex 200)
T2 sequence (looked up): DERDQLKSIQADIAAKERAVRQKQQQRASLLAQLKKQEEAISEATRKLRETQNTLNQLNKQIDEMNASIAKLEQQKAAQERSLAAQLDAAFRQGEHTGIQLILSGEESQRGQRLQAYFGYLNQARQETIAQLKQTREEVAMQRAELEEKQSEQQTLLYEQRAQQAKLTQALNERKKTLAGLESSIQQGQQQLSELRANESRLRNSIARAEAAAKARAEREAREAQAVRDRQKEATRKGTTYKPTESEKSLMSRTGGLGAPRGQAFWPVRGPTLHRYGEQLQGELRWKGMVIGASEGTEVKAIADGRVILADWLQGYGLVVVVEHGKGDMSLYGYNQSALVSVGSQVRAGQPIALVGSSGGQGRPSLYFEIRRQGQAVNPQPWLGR
Put plainly: MST; one protein fluorescently labelled (NT-647 dye) at a fixed concentration, two-fold serial dilution of unlabelled ligand over 16 samples; 25 mM HEPES/NaOH, 150 mM NaCl, 0.05% Triton X-100, pH 7.5; Monolith NT.115; apparent KD. As to conditions: both partners purified.

Assay [9] has as its target T2, EnvC, soluble version without the …. Put plainly: pull-down; Ni-NTA beads; equimolar (1–2 μM) His-tagged and untagged proteins; 10 mM HEPES/NaOH, 10 mM MgCl2, 150 mM NaCl, 0.05% Triton X-100, pH 7.5, 4°C; washes with 30 mM imidazole; SDS-PAGE; His-NlpI also with PBP4 and EnvC together. Conditions: both partners purified.

As a reminder, the stoichiometry N is the number of molecules, sites or subunits per partner or assembly.

With “PBP4ΔD3 (PBP4 lacking domain 3), His-tagged (from UniProt P24228 21-477) (enzyme)”, the stoichiometry N in [1] stood at 2. Also, the Kd in assay [2] was 153 nM; in assay [4], > 5900 nM. In addition, the fold decrease of app. KD against PBP4 in assay [3] was determined as 50 fold.

Turning to “PBP4 (penicillin binding protein 4, DD-carboxy/endopeptidase), purified, untagged (from UniProt P24228 61-477) (enzyme)”, the stoichiometry N in assay [5] stood at 2. Further, the figures for the Kd in assay [2] and in [4] were 315 nM and 307 nM, respectively.

B1: LpoA^N, N-terminal domain of LpoA (residues G28-T256) (domain or fragment)
chain: GTHTPDQSTAYMQGTAQADSAFYLQQMQQSSDDTRINWQLLAIRALVKEGKTGQAVELFNQLPQELNDAQRREKTLLAVEIKLAQKDFAGAQNLLAKITPADLEQNQQARYWQAKIDASQGRPSIDLLRALIAQEPLLGAKEKQQNIDATWQALSSMTQEQANTLVINADENILQGWLDLQRVWFDNRNDPDMMKAGIADWQKRYPNNPGAKMLPTQLVNVKAFKPAST
For the molecule B1, the Kd was 954 nM in [6] and 17 nM in assay [7].

B2: LpoA^C, C-terminal domain of LpoA (residues N257-S678) (domain or fragment)
chain: NKIALLLPLNGQAAVFGRTIQQGFEAAKNIGTQPVAAQVAAAPAADVAEQPQPQTVDGVASPAQASVSDLTGEQPAAQPVPVSAPATSTAAVSAPANPSAELKIYDTSSQPLSQILSQVQQDGASIVVGPLLKNNVEELLKSNTPLNVLALNQPENIENRVNICYFALSPEDEARDAARHIRDQGKQAPLVLIPRSSLGDRVANAFAQEWQKLGGGTVLQQKFGSTSELRAGVNGGSGIALTGSPITLRATTDSGMTTNNPTLQTTPTDDQFTNNGGRVDAVYIVATPGEIAFIKPMIAMRNGSQSGATLYASSRSAQGTAGPDFRLEMEGLQYSEIPMLAGGNLPLMQQALSAVNNDYSLARMYAMGVDAWSLANHFSQMRQVQGFEINGNTGSLTANPDCVINRNLSWLQYQQGQVVPVS
As for B2, the Kd was found to be 226 nM in assay [6] and 315 nM in [7].

B3: PBP1A, purified (full length His-PBP1A) (enzyme)
chain: MKFVKYFLILAVCCILLGAGSIYGLYRYIEPQLPDVATLKDVRLQIPMQIYSADGELIAQYGEKRRIPVTLDQIPPEMVKAFIATEDSRFYEHHGVDPVGIFRAASVALFSGHASQGASTITQQLARNFFLSPERTLMRKIKEVFLAIRIEQLLTKDEILELYLNKIYLGYRAYGVGAAAQVYFGKTVDQLTLNEMAVIAGLPKAPSTFNPLYSMDRAVARRNVVLSRMLDEGYITQQQFDQTRTEAINANYHAPEIAFSAPYLSEMVRQEMYNRYGESAYEDGYRIYTTITRKVQQAAQQAVRNNVLDYDMRHGYRGPANVLWKVGESAWDNNKITDTLKALPTYGPLLPAAVTSANPQQATAMLADGSTVALSMEGVRWARPYRSDTQQGPTPRKVTDVLQTGQQIWVRQVGDAWWLAQVPEVNSALVSINPQNGAVMALVGGFDFNQSKFNRATQALRQVGSNIKPFLYTAAMDKGLTLASMLNDVPISRWDASAGSDWQPKNSPPQYAGPIRLRQGLGQSKNVVMVRAMRAMGVDYAAEYLQRFGFPAQNIVHTESLALGSASFTPMQVARGYAVMANGGFLVDPWFISKIENDQGGVIFEAKPKVACPECDIPVIYGDTQKSNVLENNDVEDVAISREQQNVSVPMPQLEQANQALVAKTGAQEYAPHVINTPLAFLIKSALNTNIFGEPGWQGTGWRAGRDLQRRDIGGKTGTTNSSKDAWFSGYGPGVVTSVWIGFDDHRRNLGHTTASGAIKDQISGYEGGAKSAQPAWDAYMKAVLEGVPEQPLTPPPGIVTVNIDRSTGQLANGGNSREEYFIEGTQPTQQAVHEVGTTIIDNGEAQELF
In the case of B3, the Kd in assay [6] worked out at 67 nM; in assay [7], 240 nM.

B4: NlpI, soluble, as used in microscale thermophoresis (natural protein, E. coli, UniProt P0AFB1 19-294, looked up)
chain: CSNTSWRKSEVLAVPLQPTLQQEVILARMEQILASRALTDDERAQLLYERGVLYDSLGLRALARNDFSQALAIRPDMPEVFNYLGIYLTQAGNFDAAYEAFDSVLELDPTYNYAHLNRGIALYYGGRDKLAQDDLLAFYQDDPNDPFRSLWLYLAEQKLDEKQAKEVLKQHFEKSDKEQWGWNIVEFYLGNISEQTLMERLKADATDNTSLAEHLSETNFYLGKYYLSLGDLDSATALFKLAVANNVHNFVEHRYALLELSLLGQDQDDLAESDQQ
notes: NlpI, outer membrane lipoprotein of E. coli, 'Soluble NlpI construct'; In some MST runs fluorescently labelled (Fl-NlpI); also called Fl-NlpI; source: purified from overexpression strain according to published procedures [55]; (plasmid pET28a-His-NlpI)
With B4, the Kd in assay [6] turned out to be 177 nM. Further, in assay [8], the binding result was “binds”.

B5: His-NlpI (oligo-histidine tagged soluble NlpI) (natural protein, E. coli, UniProt P0AFB1 19-294, looked up)
chain: B4 chain
notes: NlpI, outer membrane lipoprotein of E. coli, 'Soluble NlpI construct'; Bait on Ni-NTA beads; also called oligohistidine-tagged-NlpI; source: purified from overexpression strain according to published procedures [55]; (plasmid pET28a-His-NlpI); not shown: His, N-terminal, kept
On to B5, for which the binding result in [9] was “binds”.
